These results are taken from article PMC4963994, “Recombinant expression of Chlamydia trachomatis major outer membrane protein in E. Coli outer membrane as a substrate for vaccine research” (BMC Microbiology, 2016).

The data set deals with the molecule itself. Put plainly: SDS-PAGE and western blot; purified MOMP in SDS loading buffer, all samples heated and reduced; NuPAGE gel; blot with anti-CtE EB mouse sera; SDS-resistant dimeric and oligomeric forms.

B1: recombinant C. trachomatis Serovar E major outer membrane protein, expressed in the E. coli outer membrane with a PelB leader and purified (natural protein)
chain: LPVGNPAEPSLMIDGILWEGFGGDPCDPCTTWCDAISMRMGYYGDFVFDRVLKTDVNKEFQMGDKPTSTTGNATAPTTLTARENPAYGRHMQDAEMFTNAACMALNIWDRFDVFCTLGASSGYLKGNSASFNLVGLFGDNENQSTVKTNSVPNMSLDQSVVELYTDTAFSWSVGARAALWECGCATLGASFQYAQSKPKVEELNVLCNAAEFTINKPKGYVGQEFPLALIAGTDAATGTKDASIDYHEWQASLALSYRLNMFTPYIGVKWSRASFDADTIRIAQPKSATAIFDTTTLNPTIAGAGDVKASAEGQLGDTMQIVSLQLNKMKSRKSCGIAVGTTIVDADKYAVTVETRLIDERAAHVNAQFRF
notes: Major outer membrane protein (MOMP), C. trachomatis strain E/12-94 Serovar E, ORF O175_03780; also called rCtE-MOMP; rMOMP
B1: the binding result is listed as “binds”.
